Results taken from PMC9083066.

Tested on: T1, FabT (Enterococcus faecalis), ORF:b010fabc
T1 sequence: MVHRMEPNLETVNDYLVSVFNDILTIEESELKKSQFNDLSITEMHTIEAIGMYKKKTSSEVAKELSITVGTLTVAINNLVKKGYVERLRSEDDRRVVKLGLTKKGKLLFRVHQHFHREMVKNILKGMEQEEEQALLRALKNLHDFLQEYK
Assay: EMSA
Settings: 10 nM DNA, 0.1 uM FabT, 0-10 uM acyl-ACP, 10 mM Tris-HCl pH 7.0, 50 mM NaCl, 1 mM EDTA, 1 mM DTT, 10% glycerol, room temperature, 30 min; 6% native PAGE

GTCAGGATCCGTCGACATCTGTATTCACCTCCACTGCTTTTGAAAAAAGGTTCTTTCTTTTACTAAAACGCTAAGATACATTGTACTCACAATTTGGGTATTTGTCCATCTTTTTTTCATTTGAGTAACAAACTGATGTCAAGACAATTGCAAATTACTGCAGAATTCTGAC (double strand) [E. faecalis acpB promoter]
binding: no binding
